In patent publication US20240218054A1 (MABLOC, published 2024):
Changes are numbered by the printed parent chain.

B1: ADI-49561 (antibody, V domains shown)
VH: EVQLLESGGGVVQPGRSLRLSCVASGFTFSSYGMHWVRQAPGKGLEWVALISYDGSNKYYADSVKGRFTISRDNSKNTLYLQMNSLRAEDTAVYYCAKDQCGGDCTADYWGQGTLVTVSS
VL: QSVLTQPASVSGSPGQSITISCTGTSSDVGGDKYVSWYQQHPGKAPKPMIYEVSNRPSGVSNRFSGSKSGNTASLTISGLQAEDEADYYCSSYTSSSTPVVFGGGTKLTVL
notes: full-length IgG; also called Antibody Number 76
B2: ADI-42219 (antibody, V domains shown)
VH: QVQLVESGGGVVQPGRSLRLSCAASGFTFSSLAMHWVRQAPGKGLEWVATISYDVSNKYYADSVKGRFTISRDNSKNTLFLQMNSLRPEDTAVYYCARGYTGYDGFDYWGQGTLVTVSS
VL: QPVLTQPRSVSGSPGQSVTISCTGTSSDVGGYNYVSWYQQHPGKAPKLMISDVSKRPSGVPDRFSGSKSGNTASLTISGLQADDEADYYCCSYATNYGVVFGGGTKVTVL
notes: full-length IgG; also called Antibody Number 77
B3: ADI-50535 (antibody, V domains shown)
VH: QVQLVQSGAEVKKPGASVKVSCKASGYTFTSYGISWVRQAPGQGLEWMGWISAYNGNTNYAQKLQGRVTMTTDTSTSTAYMELRSLRSDDTAVYYCARRPYYYGSRRPAGHMDVWGQGTTVTVSS
VL: NFMLTQPHSVSESPGKTVTISCTRSSGSIASNYVQWYQQRPGSSPTTVIYEDNQRPSGVPDRFSGSIDSSSNSASLTISGLKTEDEADYYCQSYDSSNVVFGGGTKVTVL
notes: full-length IgG; also called Antibody Number 78
B4: ADI-45128 (antibody, V domains shown)
VH: QVQLQESGPGLVRPSQTLSLTCTVSGGAISSGDYYWSWVRQPPGKGLEWIGYIHYSGTTYNNPSLKSRVTIAVDTSKNQFSLKLSSVTAADTAVYFCGRDSDKNYFDYWGQGTLVTVSS
VL: QSVLTQPPSVSAAPGQKVTISCSGSSSNIGNNDVSWYQQLPGRAPKLLIYDNNKRPSGIPDRFSGSKSGTSATLGITGLQTGDEADYYCGAWDSSLSAHVVFGGGTKVTVL
notes: full-length IgG; also called Antibody Number 79
B5: ADI-49044 (antibody, V domains shown)
VH: QVQLVESGGGVVQPGRSLRLSCAASGFAFSSYGMHWVRQAPGKGLEWVAGMRFDGTKIYYADSVKGRFTISRDNSKNTLYLQMNSLRAEDTAVYFCARDLEVGAEYIYYYYGMDVWGQGTTVTVSS
VL: QPVLTQPPSASGTPGQRVTISCSGSSSNIGTNTVSWYQQLPGTAPQLLVFSRTQRPSGVPDRFSGSKSGTSASLAISGLQSDDEADYYCAAWDDSRNGWVFGGGTKLTVL
notes: full-length IgG; also called Antibody Number 8
B6: ADI-45136 (antibody, V domains shown)
VH: EVQLVESGGGVVRPGRSLRLSCAASGFTFSSYGMHWVRQAPGKGLEWVAVIRFDGSNTVYADSVKGRFTISRDNSKNTLYLQMNSLRAEDTAVYYCAKTYDSNAYYYLDYWGQGTLVTVSS
VL: DIVMTQTPSTLSASVGDRVTVTCRASQSISDWLAWYQQKAGKAPKLLIYRASSLESGVPPRFSGSGSGTEFTLTISSLRPDDFATYYCQQYNRYPYTFGQGTKVDIK
notes: full-length IgG; also called Antibody Number 80
B7: ADI-42189 (antibody, V domains shown)
VH: EVQLVESGGGVVQPGWSLRLSCAVSGFTFSSYAMHWVRQAPGKGLEWVAVISYDGSYKWYADSVKGRFTISRDNSKNTVYLQMNSLRAEDTAVYYCASLWFIVMTMSKNPETDYWGQGTLVTVSS
VL: DIQVTQSPSSLSASVGDRVTITCRASQGIRNDLAWYQQRPGKAPKRLIYAASSLQSGVPSRFSGSGSGTEFTLTISSLQPEDFATYYCLQHHSYPWTFGQGTKVEIK
notes: full-length IgG; also called Antibody Number 81
B8: ADI-45078 (antibody, V domains shown)
VH: EVQLVESGGGLIQPGGSLRLSCAASGFSFSSHAMTWVRQAPGKGLQWVSSIRGSDRTTNYADSVKGRFTVSRDNSKNTLYLQMNSLRAEDTAIYYCAKYYDSSGYYYFDHWGQGTLVTVSS
VL: DIRMTQSPSTLSASIGDRVTITCRASQSISDWLAWYLQKPGKAPSLLIYRASSLETGVPSRFSGRGSGTEFTLTISSLQPDDFGTYYCQQYNRDPYTFGQGTKVDIK
notes: full-length IgG; also called Antibody Number 82
B9: ADI-49162 (antibody, V domains shown)
VH: EVQLVESGGTFLQPGGSLRLSCVASGFTFGTHAMSWVRQAPGKGLEWVSTFSGSGGRTYYADSVKGRFTISRDNSKSTLYLEMSALRAEDTAVYYCAKFYDSSGYYYFDYWGQGTLVTVSS
VL: DIQLTQSPSTLSASVGDRVTVTCRASQNVGGWLAWYQQKPGKAPKLLIFQASRLENGVPSRFSANASGTEFTLTIGSLQPDDFATYYCQQYNTYPYTFGQGTKVDIK
notes: full-length IgG; also called Antibody Number 83
B10: ADI-42223 (antibody, V domains shown)
VH: EVQLVESGGGLVQPGGSLRLSCAASGFTFSDYYMDWVRQAPGKGLEWVGGIRNKPNSYTTEYAASVKGRFTISRDDSKNSLFLQMNSLKTEDTAVYYCVRLYGDYVAYFDYWGQGTLVTVSS
VL: DIQLTQSPSSLSASVGDRVTITCRASQSISQYLNWYQQKPGKAPKLLISPASSFQSGVPSRFSGSGSGTDFTLTITSLQPEDFATYYCQQSYSTPWTFGQGTKVDIK
notes: full-length IgG; also called Antibody Number 84
B11: ADI-48435 (antibody, V domains shown)
VH: QVQLVQSGAEVKKPGASVKVSCKASGYTFTSYGISWVRQAPGQGLEWMGWISAYNGNTNYAQKLQGRVTMTTDTSTSTAYMELRSLRSDDTAVYYCARRGTTVTRFGVIQYYYGMDVWGQGTTVTVSS
VL: QSVLTQPASVSGSPGQSITISCTGTSSDVGGYNYVSWYQQHPGKAPKLMIYDVSNRPSGVSNRFSGSKSGNTASLTISGLQAEDEADYYCSSYTSSSTLVFGGGTQLTVL
notes: full-length IgG; also called Antibody Number 85
B12: ADI-46742 (antibody, V domains shown)
VH: QVQLQESGPGLVKPSETLSLTCTVSGASIRSYLWSWIRQPPGKELEWLGSIYHSGSTKYNPSLKSRVTISADTSKNQFSLKLNSVTAADTAVFYCARETANNWFDPWGQGTLVTVSS
VL: SYELTQPPSVSVAPGQTARIICGGNYIGGKSVHWYQQKPGQAPVLVVYNDNDRPSGIPERFSGSNSGNTATLTISRVAAGDEADYYCQVWDNSSDRRVFGGGTKLTVL
notes: full-length IgG; also called Antibody Number 86
B13: ADI-42787 (antibody, V domains shown)
VH: EVQLVESGGGVVQSGRSLRLSCAASGFTFSGNAMHWVRQAPGKGLEWVAVILYDGSNQYYADSVKGRFTISRDNSKNTLYLQMNSLRPADTAVYYCARASMMPRPPVHDYWGQGTLVTVSS
VL: DIRVTQSPATLSVSPGERATLSCRASQRVNSNLAWYQQKPGQAPRLLIYGASTRATGIPVRFSGSGSGTEFTLTISSLQSEDFAVYYCQQYNTWWTFGQGTKVEIK
notes: full-length IgG; also called Antibody Number 87
B14: ADI-49141 (antibody, V domains shown)
VH: EVQLQESGPGLVKPSGTLSLTCAVSGGSISSSNWWTWVRQPPGKGLEWIGEIYHSGSTNYNPSLESRVTMSVDKSKNQFSLKLSSVTAADTAVYYCARVQTSHSELWFGEFGADWGQGTLVTVSS
VL: DIVMTQSPATLSVSPGERATLSCRASQSVSSNLAWYQQKPGQAPRLLIYGASTRATGIPARFSGSGSGTEFTLTISSLQSEDFAVYSCQQYNTWPKTFGQGTKVEIK
notes: full-length IgG; also called Antibody Number 89
B15: ADI-45083 (antibody, V domains shown)
VH: QVQLVESGPGLVKPSGTLSLTCAVSGGSISSDYWWSWVRQPPGKGLEYIGEIYHTGSTNYNPSLKSRVTVSLDRSKNVFSLTLRSVTAADTAVYYCARSHWRSPQSVTFDLWGQGTTVTVSS
VL: QPVLTQPPSVSAAPGQKVTISCSGSNSNIGNYYVSWYQQFPGTAPKLLIYDNNKRPSGIPDRFSGSKSGTSATLAITGLQTGDEAHYYCGTWDTSSLSAGRVFGGGTKLTVL
notes: full-length IgG; also called Antibody Number 9
B16: ADI-42213 (antibody, V domains shown)
VH: EVQLLESGGGLVQPGGSLRLSCAASGFTFTYYAMSWVRQAPGKGLEWVSGISGSGDSTYNADSVKGRVTISRDNSKNTLYLQMNSLRAEDTAVYYCAKDGGYSTDWYFDLWGRGTLVTVSS
VL: EIVLTQSPGTLSLSPGERATLSCRASQSVSSSFLAWYQQKPGQAPRLLIYGASSRATGIPDRFSGSGSGTDFTLTIRRLEPEDFAVYYCQQYGSSRRTFGQGTKVEIK
notes: full-length IgG; also called Antibody Number 90
B17: ADI-42844 (antibody, V domains shown)
VH: QVQLVESGGGVVQPGRSLRLSCTASGFTFSSYGMHWVRQAPGKGPEWVAVISYDGSKKYFADSVKGRFTISRDNSKNTLYLQMNSLRAEDTAVYSCAKGYDSNGYYYIDYWGQGTPVTVSS
VL: B6 VL with V3R, M4V, T7S, V21I, D31S, A40P, P60S, R79Q, D105E
notes: full-length IgG; also called Antibody Number 91
B18: ADI-45161 (antibody, V domains shown)
VH: QVQLQESGGGVVQPGRSLRLSCAASGFTFSSYGMHWVRQAPGKGLEWVAVIWYDGSNKYYADSVKGRFTISRDNSKNTLYLQMNSLRAEDTAVYYCARDVGYQLLQVYGMDVWGQGTTVTVSS
VL: QSALTQPASVSGSPGQSITISCTGTSSDVGGYNYVSWYQQHPGKAPKLMIYEVSNRPSGVSNRFSGSKSGNTASLTISGLQAEDEADYYCSSYTSSSTLDVVFGGGTKLTVL
notes: full-length IgG; also called Antibody Number 92
B19: ADI-42192 (antibody, V domains shown)
VH: EVQLLESGPGLVKPSQTLSLTCSVSGGSISSGGYYWTWIRQPPGKGLEWIGYIYYTGSTYYNPSLKSRVTISVDTSKNQFSLKLSSVTAADTAVYFCARAEYDTSGYYQQRLPEYFQHWGQGTLVTVSS
VL: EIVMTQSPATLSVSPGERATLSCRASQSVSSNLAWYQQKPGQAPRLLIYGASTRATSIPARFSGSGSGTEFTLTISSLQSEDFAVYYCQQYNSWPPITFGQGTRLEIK
notes: full-length IgG; also called Antibody Number 93
B20: ADI-48910 (antibody, V domains shown)
VH: EVQLVQSGGGLVQRGGSLRLSCAASGFTFSSYAMTWVRQAPGKGLEWVSDMNHSGDRTNYADSVRGRFTISRDNSKNTLYLQMNSLRAEDTAVYYCAKYYDSSGYYYFHSWGQGTLVTVSS
VL: B8 VL with M4L, I15V, T20S, L37Q, S45K, S53G, R65S, G84A, D94Y
notes: full-length IgG; also called Antibody Number 94
B21: ADI-42193 (antibody, V domains shown)
VH: EVQLLESGGGLVQPGGSLRLSCAASGFIFSDHYMAWVRQAPGKGLEWVGRSRNRPNSYTTEYAASAKGRFTISRDDSKTSLYLQMNSLKTEDTAVYYCAREHGDYGLDYWGQGTLVTVSS
VL: QPVLIQPPSASGTPGQRVTISCSGSSSNFGSNFVYWYQQLPGTAPKLLIYRVNQRPSGVPDRFSGSKSGTSASLAISGLRSEDEADYYCATWDVSLSNDVLFGGGTKLTVL
notes: full-length IgG; also called Antibody Number 95
B22: ADI-49590 (antibody, V domains shown)
VH: QVQLVQSGAEVKKPGASVKVSCKASGYTFTGYYMHWVRQAPGQGLEWMGRINPNSGGTNYAQKFQGRVTMTRDTSISTAYMELSRLRSDDTAVYYCYVDYYYDSSGYYSPFDYWGQGTLVTVSS
VL: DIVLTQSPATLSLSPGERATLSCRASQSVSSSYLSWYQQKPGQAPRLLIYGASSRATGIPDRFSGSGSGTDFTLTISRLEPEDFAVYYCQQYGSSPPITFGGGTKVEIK
notes: full-length IgG; also called Antibody Number 96

target: T1, recombinant YFV E protein (soluble E, sE; YFV Asibi strain) (Yellow fever virus, Asibi strain, UniProt Q6DV88 286-678); assay: BLI monovalent (IgG on tip)
T1 construct: also called YFV E antigen; YFV E monomer
T1 sequence (Q6DV88 286-678): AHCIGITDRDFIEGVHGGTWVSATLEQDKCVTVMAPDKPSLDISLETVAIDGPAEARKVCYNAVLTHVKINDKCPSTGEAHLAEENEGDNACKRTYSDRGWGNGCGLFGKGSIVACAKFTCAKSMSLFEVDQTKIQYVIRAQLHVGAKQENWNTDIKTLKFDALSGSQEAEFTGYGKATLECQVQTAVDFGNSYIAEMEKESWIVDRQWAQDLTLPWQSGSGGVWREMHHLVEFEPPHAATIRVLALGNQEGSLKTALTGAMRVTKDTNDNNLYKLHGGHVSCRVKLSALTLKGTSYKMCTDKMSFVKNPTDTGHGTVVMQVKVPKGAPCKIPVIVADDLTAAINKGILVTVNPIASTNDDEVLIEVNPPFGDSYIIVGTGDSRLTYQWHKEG

Row | Binder | Kd [nM]
1 | B1 | 242
2 | B2 | 4.05
3 | B3 | > 100
4 | B4 | 3.54
5 | B5 | 1.88
6 | B6 | 16.8
7 | B7 | 2.4
8 | B8 | 5.88
9 | B9 | 2.19
10 | B10 | 1.04
11 | B11 | > 100
12 | B12 | > 100
13 | B13 | 0.45
14 | B14 | 187
15 | B15 | 3.45
16 | B16 | 15.2
17 | B17 | 137
18 | B18 | > 100
19 | B19 | 204
20 | B20 | 2.42
21 | B21 | 0.922
22 | B22 | 109
